From the DeepSol protein solubility set

Experiment: soluble on expression in E. coli; label from the status in PepcDB or PDB records

Row | Sequence | soluble on expression in E. coli
1 | MHFHVNNVVTSSQIDDVLVKICTGPLFDNGTPFITYGCVLHLSSERGIIRTFDEKLCLFELKDLNMDGVVDMTDVLPLGCTLKFFATRQNHHTFTASNVSPICEPAAQLIFLNSTEMNVITPDFTSTGSSNHYSVEKERFAYVRILELFQQQAVLSLPLSSMISELGKFGEDDVSQYIGISDEERGMFIKRRTHLFTVGWNDLVTLQSPDFYQAIVLILSYILCNGGVTSTENVFEFYQTDNVPLSVRQRTGSDMNSFREIIDFHSWAFTLSSHGTYVSAKRNLPHFDYMSFFEGIVCTATPQRHQKSKLLKHPPGLQIPLLNTRAQALGQASMHQQQQEHISNPYQGYQPYLHREDMTNGMKKPTGTLIDGANQKHCFGMQVSSPDRNAFEKPSVFGHTWGDVIAFNKNSANFSRGMQSKRRYNLSSMFRNLKYSGFRSSIDSTSSSDDSQSLDNCSTSGVNNMLIGCGPQMY | not soluble
2 | MHGKLIGVGVGPGDSELLTLRAVNVLRSVPVICAPRSSSERESIALSIVEDILTERRDGCRILDPVFPMTDDRDELESHWDSAARMVAAELEDGRDVAFITLGDPSIYSTFSYLQQRIEDMGFKTEMVPGVTSFTACAATAGRTLVEGDEILLVVPRVDDRFERVLRDVDACVIMKTSRHGRRAMEVVESDPRGKDVVSVANCSMDDEVVERGFASGGGYLATTLVRFREQS | soluble
3 | MHGKRIALCASRKLDEMTTLIEKQGGTAIIRPAQGTVFSKGSELGEEMRTVIAMRPDWIVFTTGIGFEALLEAADREGMAAQWHRTIKEANVAARGYKTVTALKQIGVTPVAVSEDGTTKGLIAALYGHDFADKNVVVQLYGDTAPALKQFFLEQGALYTELLPYRHIAPDEETLATLYKEIVGREVDAVCFTSAMQVRFFFSFAREKKEIAPLLDAFRTDVVACAVGKVTKEALEEEGVDRVIAPEHERMGAMIVTLARYFGA | not soluble
4 | MHHHHHHGRIGIPRERLTNETRVAATPKTVEQLLKLGFTVAVESGAGQLASFDDKAFVQAGAEIVEGNSVWQSEIILKVNAPLDDEIALLNPGTTLVSFIWPAQNPELMQKLAERNVTVMAMDSVPRISRAQSLDALSSMANIAGYRAIVEAAHEFGRFFTGQITAAGKVPPAKVMVIGAGVAGLAAIGAANSLGAIVRAFDTRPEVKEQVQSMGAEFLELDFKEEAGSGDGYAKVMSDAFIKAEMELFAAQAKEVDIIVTTALIPGKPAPKLITREMVDSMKAGSVIVDLAAQNGGNCEYTVPGEIFTTENGVKVIGYTDLPGRLPTQSSQLYGTNLVNLLKLLCKEKDGNITVDFDDVVIRGVTVIRAGEITWPAPPIQVSAQPQAAQKAAPEVKTEEK | soluble
5 | MHHHHHHHHIGGDFAVVKAKKSLERRGFGVKRGDKIYLHPLEVVYLQIKGIESFGELEDVLSWAESRMEDFSTYYFVYEDLRDRGNKVKIQGEFLLTKKPYLPISERKTIRMEEIAEKARNFDELRLAVVDEESEITYFRVYEPDMMGEQKEELPEIAGVLSDEYVITKQTEIFSRYFYGSEKGDLVTLSLIESLYLLDLGKLNLLNADREELVKRAREVERNFDRRYEVYRNLKERGFVVKTGFKFGSEFRVYRKVESVDDLPHSEYLVDIADSREIRLIDLARAVRLAQNVRKRMVFAYGKNYLCFERVKV | soluble
6 | MHHHHHHMKEIATEYSFIKYTELELDDNGSIKQLSIPNKYNVIYAIAINDELVYIGKTKNLRKRINYYRTAINRKDKTSDSTKSALIHSALKEGSKVEFYARQCFNLSMTNELGTMTIATIDLEAPLFIKLFNPPWNIQHKKK | soluble
7 | MHHHHHHSSGVDLGTENLYFQSMAQADIALIGLAVMGQNLILNMNDHGFVVCAFNRTVSKVDDFLANEAKGTKVVGAQSLKEMVSKLKKPRRIILLVKAGQAVDDFIEKLVPLLDTGDIIIDGGNSEYRDTTRRCRDLKAKGILFVGSGVSGGEEGARYGPSLMPGGNKEAWPHIKTIFQGIAAKVGTGEPCCDWVGDEGAGHFVKMVHNGIEYGDMQLICEAYHLMKDVLGMAQDEMAQAFEDWNKTELDSFLIEITANILKFQDTDGKHLLPKIRDSAGQKGTGKWTAISALEYGVPVTLIGEAVFARCLSSLKDERIQASKKLKGPQKFQFDGDKKSFLEDIRKALYASKIISYAQGFMLLRQAATEFGWTLNYGGIALMWRGGCIIRSVFLGKIKDAFDRNPELQNLLLDDFFKSAVENCQDSWRRAVSTGVQAGIPMPCFTTALSFYDGYRHEMLPASLIQAQRDYFGAHTYELLAKPGQFIHTNWTGHGGTVSSSSYNA | soluble
8 | MHHHHHHSSGVDLGTENLYFQSMEESGATFHTYLNHLIQGLQKEAKEKFKGWVTCSSTDNTDLAFKKVGDGNPLKLWKASVEVEAPPSVVLNRVLRERHLWDEDFVQWKVVETLDRQTEIYQYVLNSMAPHPSRDFVVLRTWKTDLPKGMCTLVSLSVEHEEAQLLGGVRAVVMDSQYLIEPCGSGKSRLTHICRIDLKGHSPEWYSKGFGHLCAAEVARIRNSFQPLIAEGPETKI | soluble
9 | MHHHHHHSSGVDLGTENLYFQSMNNVEKPDNDEDESEVPSLPLGLTGAFEDTSFASLCNLVNENTLKAIKEMGFTNMTEIQHKSIRPLLEGRDLLAAAKTGSGKTLAFLIPAVELIVKLRFMPRNGTGVLILSPTRELAMQTFGVLKELMTHHVHTYGLIMGGSNRSAEAQKLGNGINIIVATPGRLLDHMQNTPGFMYKNLQCLVIDEADRILDVGFEEELKQIIKLLPTRRQTMLFSATQTRKVEDLARISLKKEPLYVG | soluble
10 | MHHHHHHSSGVDLGTENLYFQSMTLESMNPQVKAVEYAVRGPIVLKAGEIELELQRGIKKPFTEVIRANIGDAQAMGQQPITFLRQVMALCTYPNLLDSPSFPEDAKKRARRILQACGGNSLGSYSASQGVNCIREDVAAYITRRDGGVPADPDNIYLTTGASDGISTILKILVSGGGKSRTGVMIPIPQYPLYSAVISELDAIQVNYYLDEENCWALNVNELRRAVQEAKDHCDPKVLCIINPGNPTGQVQSRKCIEDVIHFAWEEKLFLLADEVYQDNVYSPDCRFHSFKKVLYEMGPEYSSNVELASFHSTSKGYMGECGYRGGYMEVINLHPEIKGQLVKLLSVRLCPPVSGQAAMDIVVNPPVAGEESFEQFSREKESVLGNLAKKAKLTEDLFNQVPGIHCNPLQGAMYAFPRIFIPAKAVEAAQAHQMAPDMFYCMKLLEETGICVVPGSGFGQREGTYHFRMTILPPVEKLKTVLQKVKDFHINFLEKYA | soluble
11 | MHHHHHHSSGVDLGTENLYFQSMVDATRVPMDERFRTLKKKLEEGMVFTEYEQIPKKKANGIFSTAALPENAERSRIREVVPYEENRVELIPTKENNTGYINASHIKVVVGGAEWHYIATQGPLPHTCHDFWQMVWEQGVNVIAMVTAEEEGGRTKSHRYWPKLGSKHSSATYGKFKVTTKFRTDSVCYATTGLKVKHLLSGQERTVWHLQYTDWPDHGCPEDVQGFLSYLEEIQSVRRHTNSMLEGTKNRHPPIVVHCSAGVGRTGVLILSELMIYCLEHNEKVEVPMMLRLLREQRMFMIQTIAQYKFVYQVLIQFLQNSRLI | soluble
12 | MHHHHHHVMIMKAFISENVRGIYAFDENGNLIEKRYFTDKPEKVLDQLLKGEITKDLEELLNSLKEKGYDEFVFEHPELSRRAKELGFSATTEFPNIAGERLRSNPEEFLGENWFEEYYKVGVALTRMRIQEQSGARDKMVIQAIEALDDVDKVINLLVARLREWYSLHFPELDELLPKHPQYVAFVKTVGHRDNINEEVLRELGLSEEKIKKILEAKEKTMGAWMDQTDIEVVRQLAEEIDRLYQLRKKLEDYIDRAMDDVAPNLKALVGAKLAARLISLAGGLRELAMMPSSTIQVLGAEKALFRHLRTGAKPPKHGVIYQYPAINRSPWWQRGKIARALAGKLAIAARVDYFSGEYIAEELKKELEARIREIK | soluble
13 | MHHKAKVIGMLKETIRSGDWKGEKHVPVIEYEREGDLVKVEVSVGKEIPHPNTPEHHIAWIELYFHPEGGQFPILVGRVEFTNHSDPLTEPRAVFFFKTSKKGKLYALSYCNIHGLWENEVQLE | soluble
14 | MHLRTYYPTVVLSDIHLGTQHSKTEEVTHFLKSINCDRLILNGDIIDGWHLQKSGLGKWKAKHTDFFKVIMKMMENFGTQVIYVRGNHDDFLDNLAPLNFYNIRIVKDCIYESHGRRYYVTHGDIFDTVTTQMKWLAKLGDTGYTFLLWLNKVYNLRRMKQGKPYYSLSQSIKNRVKTAVSYISDFEKELVGLARAKKCDGVICGHIHHPANTFYEDIHYLNSGDWVETLSALTEDEDGNWTIRYFDSGLLKEDNHKEKQTISITIAS | not soluble
15 | MHNLVPAPKQTQSVLIKNATVHTVIQGVLTNTDVLIENGKISALGPQLSTNTTASTQVVDASGKHLYPGLIALDTSLGLEHHHHHH | not soluble
16 | MHPFYTRAATMIGEIAAAVSFISKFLRTKGLTSERQLQTFSQSLQELLAEHYKHHWFPEKPCKGSGYRCIRINHKMDPLIGQAAQRIGLSSQELFRLLPSELTLWVDPYEVSYRIGEDGSICVLYEASPAGGSTQNSTNVQMVDSRISCKEELLLGRTSPSKNYNMMTVSG | soluble
17 | MHPGIDSMSSNINCENNPFSFYGNPHKSVIIHGKEGTELLKEKGEDCKTFENSQQYFLWCCVQQQMYHYQLLSTAFASYGFEPPRIPGAFPHHIPPIFNGSMKCLRDREVFNQSGFLYVNVSPDTYQETRQEAPVEQRNQWSEKSKTTSKKSICKVLFECTNSSLLENAENRSIFSKQGSGSHVGENSKNPSEDSGQSGRLSQNATAEHNVLEKHLQEEYQMAKNTVNESFDSLKECSAASVIKGSYLLSQVVHIPEDAIEPEIPPDLQGPGGHVFLRMLSRSWRQYKRALEHNE | not soluble
18 | MHPRSKLSQAQRELAVDLFEEGYGSRAVANRLGVRREQVRHLEDRFRLHGRLCLVSKRTKRQYSFDTKMEILRRHKAGELKSDLAKEYGLSSPALINHWVWQVNKGGPDALRPKPKGRPKSSARPAPVTEEDKLRRENELLKAEVAYLKKLRDLRDQRRGLEHHHHHH | not soluble
19 | MHQQIIKFWFEELTPQNWFENNPELDKHIASRFASVLEQAARCELFNWRDSAQGRLAEIIVLDQFSRNVYRNTPKAFAQDPLALALAQEAIRLGHDQELAPEQLSFLYMPFMHSESRLIHVEAEKLFRASGLENNYDFELKHKAIIDQFGRYPHRNAILGRESTPEELAFLQQPGS | soluble
20 | MHQVYVDIIVDAIIEQYQTEENFYSAYQIQAADWQAWKEGQFGLDNEVMQKIKNLFTDYEWMLTQKILRQTILFPEKRNLAVSEYKRLKTTIAKKWLQSDLGVVELIPNNKQEQEIAAGYIDLKVTLAYGEWGFDDIITFRLPATIQRQLEGSKVELLDWVNENLMDTYVGE | not soluble
21 | MHRHVVTKVLPYTPDQLFELVGDVDAYPKFVPWITGMRTWNGRVDGAVSTVDAEAQVGFSFLREKFATRKRRDKDARSIDVSLLYGPFKRLNNGWRFMPEGDATRVEFVIEFAFKSALLDAMLAANVDRAAGKLIACFEARAQQLHGALEHHHHHH | soluble
22 | MHRTARNFAEIKPNLLFRKAKMARKSAEKYVAKKIQVPELQGEALFGLHSVLEAIRSGKRDFHSVFLKKAVENRADSDARIKEILSRIDELGIQKTLLTDDQLDRLTEFQLHNGICMDASALQFSNFEPKTVSIFVDKVLDPGNLGAIGRSAWYFGADGLGLVKGRGPKSITPAMIKSSCGALEHLPVQQFLNFNEFRDKIKAAGGELVATCDPGAAEKAGISAKSLDQWTPEKPVGIVLGDEGVGISRGILNLCDTVISISPVRKDGSNVTSLNVSVVAGILLHHISLQNRTN | not soluble
